Entries after “also recorded” stand apart in the source; their conditions may differ.
Molecular target: T1, p75^NTR (Homo sapiens, UniProt P08138)
T1 sequence (P08138 29-427): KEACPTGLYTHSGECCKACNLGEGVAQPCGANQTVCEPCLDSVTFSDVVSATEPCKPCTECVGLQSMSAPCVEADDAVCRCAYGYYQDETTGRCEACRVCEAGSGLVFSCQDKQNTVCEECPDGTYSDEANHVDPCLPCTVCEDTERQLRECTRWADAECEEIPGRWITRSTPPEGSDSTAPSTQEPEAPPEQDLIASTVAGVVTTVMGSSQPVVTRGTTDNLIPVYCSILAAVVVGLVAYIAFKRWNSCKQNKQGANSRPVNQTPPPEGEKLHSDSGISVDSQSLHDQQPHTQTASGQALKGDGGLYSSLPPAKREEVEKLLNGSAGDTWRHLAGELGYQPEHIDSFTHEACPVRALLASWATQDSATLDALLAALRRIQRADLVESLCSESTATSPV
Test: Antigen mediated proliferation and cytokine secretion of CD4+ T-cells co-cultured with autologous PDC of allergic donors
Format: cell-based
Design: nerve growth factor receptor p75^NTR, which is expressed by human and murine plasmacytoid dendritic cells (PDC); endogenous in cells; host or cells: primary human plasmacytoid dendritic cells (BDCA-4+ selection) from buffy coats or from peripheral blood of allergic donors
Procedure: CD4^+ T helper cells and PDC used in antigen mediated autologous CD4^+ T-cell proliferation assays were purified from peripheral blood (80 ml) obtained from specified donors who are known to have allergy against certain allergens. Peripheral blood was drawn in tubes containing Li-Heparin as anti-coagulant (S-Monovette Li-Heparin 7.5 ml, Sarstedt). CD4^+ T helper cells were purified from peripheral blood mononuclear cells by negative selection using CD4^+ T-cell isolation kit II (Miltenyi Biotec), as per manufacturer's instructions with slight modifications. Briefly, the cell pellet was re-suspended in 50 μl PBS E/B. Then 12 μl of Biotin-labelled antibody cocktail per 10^7 total cells were added and the cell suspension was incubated at 4° C. for 15 minutes. 50 μl of PBS E/B was added followed by addition of 25 μl of anti-biotin microbeads per 10^7 total cells. Cells were incubated at 4° C. for another 20 minutes, followed by washing with 10 ml PBS E/B and centrifugation (470 g for 6 minutes). […] The purity of isolated CD4^+ T helper cells was over 95% as assessed by flow cytometric analysis after co-staining with monoclonal mouse anti human CD3-PE (BD Biosciences) and monoclonal mouse anti human CD4-FITC (BD Biosciences). […]
Purified CD4^+ T helper cells (see above) were washed once with PBS. […] Cell number was determined.
Antigen mediated CD4^+ T helper cell proliferation responses were assayed using purified and CFSE labelled CD4^+ T helper cells in co-culture with purified PDC/BDAC4^+ cells. […] After 5 days of co-culture, supernatant was analyzed for Th1/Th2 cytokines by using BD cytokine bead array (CBA) Human Th1/Th2 cytokine kit (BD Biosciences) and percentages of proliferating CFSE-low CD4^+ T-cells were analyzed by flow cytometry.
The concentrations of IL-2, IL-4, IL-5, IL-10, IFNγ and TNFα in the supernatant were determined by using the CBA kit following manufacturer's instruction with modification in data analysis using Microsoft Excel. […]

## NGF: Nerve growth factor, best characterized neurotrophin; natural p75^NTR agonist (R&D Systems)
CD4+ T-cell/PDC co-culture with allergen, NGF vs without NGF
  secretion of IL-2 and IL-5: dose-dependent increased secretion; also recorded: increasing secretion
co-culture with autologous PDC plus specific allergen, NGF (25 ng/ml elsewhere in the source) vs without NGF, 5 days
  antigen (allergen) mediated CD4+ T-cells proliferation (CFSE): significantly increased; also recorded: increased proliferation
With or without antigen plus minus NGF or with NGF alone
  proliferation of T-cells on its own (without PDC co-culture): did not show any proliferation

— US20190381169A1, “PHARMACEUTICAL COMBINATIONS FOR IMMUNOTHERAPY” (Technische Universitat Dresden, priority 2014, published 2019)
